The record followed here is US20040018558A1 (published 2004).

The labels stand for the following.
B1: Clone No. 27 (Table IX) MCESLKECGLF (peptide, not shown: small tags and cut ends)
chain: MCESLKECGLF
modifications: cysteine pairing not given here; also: fused to LacI carrier via linker, letters not given here
B2: Clone No. 10 (Table IX) ICENLKECGLF (peptide, not shown: small tags and cut ends)
chain: ICENLKECGLF
modifications: cysteine pairing not given here; also: fused to LacI carrier via linker, letters not given here

Where no end group is shown, it is not given here.

T2 sequence (P02699 whole entry, the tested form may be a part): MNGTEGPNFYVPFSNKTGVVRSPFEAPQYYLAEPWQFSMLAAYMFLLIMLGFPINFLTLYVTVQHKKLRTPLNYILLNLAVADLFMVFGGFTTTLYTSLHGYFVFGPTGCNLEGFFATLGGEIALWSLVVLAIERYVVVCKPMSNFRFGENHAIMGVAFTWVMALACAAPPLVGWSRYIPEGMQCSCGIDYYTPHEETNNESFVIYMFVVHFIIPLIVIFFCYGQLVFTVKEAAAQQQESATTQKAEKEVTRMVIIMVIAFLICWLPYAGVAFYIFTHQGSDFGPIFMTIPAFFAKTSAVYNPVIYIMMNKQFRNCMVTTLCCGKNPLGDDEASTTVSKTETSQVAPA

The target in one experiment is T1, rhodopsin (activation state not stated) (bovine, UniProt P02699 1-348).
T1 construct: whole, on cells; same protein as m1; also called EDTA-washed rhodopsin
T1 sequence (P02699 whole entry): as the sequence (P02699 whole entry, the tested form may be a part) above
In words: ELISA of lysates, OD450 with receptor minus without receptor. The procedure:
The methods of Example 7 repeated using rhodopsin screening with a Gt library. To identify the rank order of binding, the lysates were analyzed using ELISA methods in which the secondary antibody was conjugated to HRP. Following addition of the substrate, the microplate was read using a spectrophotometer. The binding is the OD₄₅₀ for wells with receptor—OD₄₅₀ for wells in which no receptor (control wells with empty lipid vesicles).
Background: In an ELISA, binding on a coated surface is turned into a signal by an enzyme label.
MLDNLKDCGLF (peptide, not shown: small tags and cut ends, also: fused to lysate carrier and linker, not given here) [L7 MLDNLKDCGLF] returned an ELISA of 0.525 OD450. On the same count and under the same terms, next, IRDNLKDCGLF (peptide, not shown: small tags and cut ends, also: fused to fusion carrier of the lysate via linker, not given here, second of two rows labelled L10) [L10 IRDNLKDCGLF]: 0.162 OD450. On the same count and under the same terms, next, MLDNLKACGLF (peptide, not shown: small tags and cut ends, also: fused to lysate carrier and linker, not given here) [L4 MLDNLKACGLF]: 0.908 OD450. On the same count and under the same terms, as for IVEILEDCGLF (peptide, not shown: small tags and cut ends, also: fused to fusion carrier of the lysate via linker, not given here) [L33 IVEILEDCGLF], the figure is 1.01 OD450.

For another experiment, the target named is recombinant reconstituted β2 adrenergic receptor. Description: ELISA of clones panned from the Gs library, reconstituted β2 adrenergic receptor.
Regarding QRLRLRKYRLF (peptide, not shown: small tags and cut ends, not fully specified) [BAR31 QRLRLRKYRLF], the ELISA turned out to be 0.026.

As to QRMPLRQYELL (peptide, not shown: small tags and cut ends, not fully specified) [AG9 QRMPLRQYELL], the ELISA is 0.19.

With PCIQLGQYESF (peptide, not shown: small tags and cut ends, not fully specified) [BAR40 PCIQLGQYESF], the ELISA was 0.028. Turning to NCMKFRSCGLF (peptide, not shown: small tags and cut ends, not fully specified; cysteine pairing not given here) [BAR20 NCMKFRSCGLF], the ELISA turned out to be 0.079. Consider QGMQLRRFKLR (peptide, not shown: small tags and cut ends, not fully specified) [AG1 QGMQLRRFKLR], for which the ELISA was 0.435. Same read-out and setting: next, DRMHLWRFGLL (peptide, not shown: small tags and cut ends, not fully specified) [AG11 DRMHLWRFGLL]: 0.192; PRPRLLRFKIP (peptide, not shown: small tags and cut ends, also: fused to carrier via linker, not given here) [AG19 PRPRLLRFKIP]: 0.361.

Turning to QRMNLGPCGLL (peptide, not shown: small tags and cut ends, not fully specified) [AG18 QRMNLGPCGLL], the ELISA was determined as 0.155. On the same count and under the same terms, next, QRMPLRLFEFL (peptide, not shown: small tags and cut ends, not fully specified) [AG3 QRMPLRLFEFL]: 0.217; QWMDLRQHELL (peptide, not shown: small tags and cut ends, not fully specified) [BAR3 QWMDLRQHELL]: 0.185; QGEHLRQLQLQ (peptide, not shown: small tags and cut ends, not fully specified) [AG2 QGEHLRQLQLQ]: 0.33. On the same count and under the same terms, as for ERLHRRLFQLH (peptide, not shown: small tags and cut ends, not fully specified) [BAR8 ERLHRRLFQLH], the figure is 0.047; as for QRLRLGPDELF (peptide, not shown: small tags and cut ends, not fully specified) [AG4 QRLRLGPDELF], 0.291; as for QRLHLRGYEFL (peptide, not shown: small tags and cut ends, not fully specified) [AG13 QRLHLRGYEFL], 0.054. Still for that read-out and setting: as for RWLHWQYRGRG (peptide, not shown: small tags and cut ends, not fully specified) [AG20 RWLHWQYRGRG], the figure is 0.431; as for QRVHLRQDELL (peptide, not shown: small tags and cut ends, not fully specified) [BAR2 QRVHLRQDELL], 0.197. With QRIHRRPFKFF (peptide, not shown: small tags and cut ends, not fully specified) [BAR1 QRIHRRPFKFF], the ELISA was found to be 0.218.

A further experiment has as its target T2, light-activated rhodopsin (bovine rod outer segment membranes) (bovine, UniProt P02699 1-348, retinylidene chromophore bound to Lys-296).
T2 construct: whole, on cells; native receptor in membrane fragments immobilised on wells, not intact cells; also called metarhodopsin II; MII
In words: LacI display panning, light-activated ROS membranes. The protocol:
For screening of the library by “panning,” rhodopsin receptors prepared according to Example 5 were immobilized directly on Immulon 4 (Dynatech) microtiter wells (0.1-1 μg of protein per well) in cold 35 mM HEPES, pH 7.5, containing 0.1 mM EDTA, 50 mM KCl and 1 mM dithiothreitol (HEK/DTT). After shaking for one hour at 4° C., unbound membrane fragments were washed away with HEK/DTT. The wells were blocked with 100 μl 2% BSA in HEKL (35 mM HEPES; 0.1 mM EDTA; 50 mM KCl; 0.2 M α-lactose; pH 7.5, with 1 mM DTT). For rounds 1 and 2, BSA was used for blocking; in later rounds 1% nonfat dry milk was used. For the first round of panning, about 24 wells of a 96-well plate were used. In subsequent rounds, 8 wells with receptor and 8 wells without receptor were prepared.
The Gt library was thawed (2 mL aliquot) and mixed with 6 mL lysis buffer on ice. Lysis buffer contains 4.25 mL HE (25 mM HEPES: 0.1 mM EDTA; pH 7.5); 1 mL 50% glycerol; 750 μL 10 mg/mL protease-free BSA in HE; 10 μL 0.5 M DTT; and 6.25 μL 0.2 M PMSF. Freshly prepared lysozyme solution (150 μL 10 mg/mL lysozyme in cold HE) was added and the tube was gently inverted several times and incubated on ice for no more than two minutes. The extent of lysis is evidenced by an increase in viscosity that can be observed by noting the slow migration of bubbles to the top of the tube after mixing. Lysis was terminated by mixing in 2 mL 20% lactose and 250 μL 2M KCl. The tube was centrifuged immediately at 13,000×g for 15 minutes at 4° C. and the supernatant transferred to a new tube. A small aliquot of 0.1% (the PRE sample) was saved in a separate, labeled tube. […] Immediately thereafter, the crude bacterial lysate from the peptide library (200 μL) was added to each well and allowed to shake gently for one hour at 4° C. For round 2, this same procedure was followed. In round 3, the amount of lysate used was reduced to 100 μL. In subsequent rounds, the lysate was diluted 1:10 in HEKL/BSA.
Take MLKNLKDCGMF (peptide, not shown: small tags and cut ends, also: fused to LacI carrier via linker, letters not given here) [Clone No. 24 (Table IX) MLKNLKDCGMF]: the binding result was “binds”. The same measure, in the same setting: as for MLENLKDCGLF (peptide, not shown: small tags and cut ends, also: fused to LacI carrier via linker, letters not given here) [Clone No. 18 (Table IX) MLENLKDCGLF], the entry is “binds”. On the same count and under the same terms, as for IHASLRDCGLF (peptide, not shown: small tags and cut ends, also: fused to LacI carrier via linker, letters not given here) [Clone No. 11 (Table IX) IHASLRDCGLF], the entry is “binds”; as for MRESLKDCGLF (peptide, not shown: small tags and cut ends, also: fused to LacI carrier via linker, letters not given here) [Clone No. 17 (Table IX) MRESLKDCGLF], “binds”. On the same count and under the same terms, next, IIDNLKDCGLF (peptide, not shown: small tags and cut ends, also: fused to LacI carrier via linker, letters not given here) [Clone No. 16 (Table IX) IIDNLKDCGLF]: “binds”; IRENLEDCGLF (peptide, not shown: small tags and cut ends, also: fused to LacI carrier via linker, letters not given here) [Clone No. 15/28 (Table IX) IRENLEDCGLF]: “binds”. With IRETLKDCGLL (peptide, not shown: small tags and cut ends, also: fused to LacI carrier via linker, letters not given here) [Clone No. 19 (Table IX) IRETLKDCGLL], the binding result is “binds”. The same measure, in the same setting: as for IQGVLKDCGLL (peptide, not shown: small tags and cut ends, also: fused to LacI carrier via linker, letters not given here) [Clone No. 9 (Table IX) IQGVLKDCGLL], the entry is “binds”; as for LLDNIKDCGLF (peptide, not shown: small tags and cut ends, also: fused to LacI carrier via linker, letters not given here) [Clone No. 3 (Table IX) LLDNIKDCGLF], “binds”; as for VLEDLKSCGLF (peptide, not shown: small tags and cut ends, also: fused to LacI carrier via linker, letters not given here) [Clone No. 23 (Table IX) VLEDLKSCGLF], “binds”.

Take IFLNLKDCGLF (peptide, not shown: small tags and cut ends, also: fused to LacI carrier via linker, letters not given here) [Clone No. 14 (Table IX) IFLNLKDCGLF]: the binding result is listed as “binds”.

With LRESLKQCGLF (peptide, not shown: small tags and cut ends, also: fused to LacI carrier via linker, letters not given here) [Clone No. 6 (Table IX) LRESLKQCGLF], the binding result was “binds”.

Turning to B1, the binding result was “binds”. On the same count and under the same terms, as for ILTKLTDCGLF (peptide, not shown: small tags and cut ends, also: fused to LacI carrier via linker, letters not given here) [Clone No. 4 (Table IX) ILTKLTDCGLF], the entry is “binds”. Still for that read-out and setting: next, B2: “binds”. Same read-out and setting: as for ILADVIDCGLF (peptide, not shown: small tags and cut ends, also: fused to LacI carrier via linker, letters not given here) [Clone No. 26 (Table IX) ILADVIDCGLF], the entry is “binds”.
